Source: paper PMC4900634 (PLoS Biology, 2016)

Key:
[1] = molecular target: T1, Ec-MscL (mechanosensitive channel of large conductance) (Escherichia coli, UniProt P0A742); assay: MicroScale Thermophoresis; supported by patch clamp activation at […] DHS and MTS-PEG5000 competition on cysteine mutants; assay type: binding
T1 construct: wild type, recombinant, detergent-solubilized channel

[2] = molecular target: T2, Ec-MscL (mechanosensitive channel of large conductance) (Escherichia coli, UniProt P0A742, K55T); assay: MicroScale Thermophoresis, labeled purified protein in DDM (main text prints […]); assay type: binding
T2 construct: recombinant, detergent-solubilized channel
T2 sequence (P0A742 whole entry K55T): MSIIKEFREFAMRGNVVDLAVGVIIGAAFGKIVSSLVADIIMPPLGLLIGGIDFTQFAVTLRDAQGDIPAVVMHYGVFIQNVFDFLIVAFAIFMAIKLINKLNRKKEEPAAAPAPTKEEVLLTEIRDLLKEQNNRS

[3] = molecular target: the molecule itself; assay: non-reducing SDS-PAGE with Western blot (dimer band); purified His-tagged cysteine mutants, 5 ug in 50 mM KPi pH 7.5, 150 mM NaCl, 4 mM DM, 22°C; nonreducing sample buffer with iodoacetamide; blot with Penta.His; samples of the MTS-PEG5000 versus DHS competition experiment, mock lanes included

T1 sequence (P0A742 whole entry): as the sequence (P0A742 whole entry K55T) above, with T55K counted along it

Molecule | Kd [1] | Kd [2] | binding result [3]
CN[C@@H]1[C@H](O[C@H]2[C@H](O[C@H]3[C@H](O)[C@@H](O)[C@H](NC(=N)N)[C@@H](O)[C@@H]3NC(=N)N)O[C@@H](C)[C@]2(O)CO)O[C@@H](CO)[C@H](O)[C@H]1O [DHS, dihydrostreptomycin] | 9.81 ± 0.13 mM | 0.601 ± 0.0551 mM | 
A114C Ec-MscL (Escherichia coli mechanosensitive channel of large conductance, cysteine mutant) (natural protein, UniProt P0A742 1-136, looked up, MscL, mechanosensitive channel of large conductance, Escherichia coli (Ec-MscL); single cysteine mutant; source: E. coli PB104 (pB10) or PB116 (pET21a), purified (Talon resin, in DM); not shown: His6, C-terminal, kept) MSIIKEFREFAMRGNVVDLAVGVIIGAAFGKIVSSLVADIIMPPLGLLIGGIDFKQFAVTLRDAQGDIPAVVMHYGVFIQNVFDFLIVAFAIFMAIKLINKLNRKKEEPAAAPCPTKEEVLLTEIRDLLKEQNNRS |  |  | binds
T116C Ec-MscL (Escherichia coli mechanosensitive channel of large conductance, cysteine mutant) (natural protein, UniProt P0A742 1-136, looked up, MscL, mechanosensitive channel of large conductance, Escherichia coli (Ec-MscL); single cysteine mutant; source: E. coli PB104 (pB10) or PB116 (pET21a), purified (Talon resin, in DM); not shown: His6, C-terminal, kept) MSIIKEFREFAMRGNVVDLAVGVIIGAAFGKIVSSLVADIIMPPLGLLIGGIDFKQFAVTLRDAQGDIPAVVMHYGVFIQNVFDFLIVAFAIFMAIKLINKLNRKKEEPAAAPAPCKEEVLLTEIRDLLKEQNNRS |  |  | binds
K117C Ec-MscL (Escherichia coli mechanosensitive channel of large conductance, cysteine mutant) (natural protein, UniProt P0A742 1-136, looked up, MscL, mechanosensitive channel of large conductance, Escherichia coli (Ec-MscL); single cysteine mutant; source: E. coli PB104 (pB10) or PB116 (pET21a), purified (Talon resin, in DM); not shown: His6, C-terminal, kept) MSIIKEFREFAMRGNVVDLAVGVIIGAAFGKIVSSLVADIIMPPLGLLIGGIDFKQFAVTLRDAQGDIPAVVMHYGVFIQNVFDFLIVAFAIFMAIKLINKLNRKKEEPAAAPAPTCEEVLLTEIRDLLKEQNNRS |  |  | binds
